From article PMC10784507

Molecular target: holo-SDHA-SDHAF2 complex (preformed from purified proteins) (human) (UniProt P31040)
Assay: pull-down; preformed holo-SDHA-SDHAF2 (2 µM, His6 on SDHA) incubated with SDHAF4 or its variants, with or without 5 mM fumarate, 30 min 25 °C, then held on Ni-NTA agarose; SDS-PAGE with Coomassie, western blot for the truncated variants

SDHAF4^E92N, sequence (Q5VUM1 21-108 E92N, stated change not applied): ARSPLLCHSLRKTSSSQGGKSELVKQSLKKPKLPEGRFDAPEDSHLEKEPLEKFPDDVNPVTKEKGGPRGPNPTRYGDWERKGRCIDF
holo-SDHA-SDHAF2 complex (preformed from purified proteins) (human), sequence (P31040 43-664, chain 1 of 2): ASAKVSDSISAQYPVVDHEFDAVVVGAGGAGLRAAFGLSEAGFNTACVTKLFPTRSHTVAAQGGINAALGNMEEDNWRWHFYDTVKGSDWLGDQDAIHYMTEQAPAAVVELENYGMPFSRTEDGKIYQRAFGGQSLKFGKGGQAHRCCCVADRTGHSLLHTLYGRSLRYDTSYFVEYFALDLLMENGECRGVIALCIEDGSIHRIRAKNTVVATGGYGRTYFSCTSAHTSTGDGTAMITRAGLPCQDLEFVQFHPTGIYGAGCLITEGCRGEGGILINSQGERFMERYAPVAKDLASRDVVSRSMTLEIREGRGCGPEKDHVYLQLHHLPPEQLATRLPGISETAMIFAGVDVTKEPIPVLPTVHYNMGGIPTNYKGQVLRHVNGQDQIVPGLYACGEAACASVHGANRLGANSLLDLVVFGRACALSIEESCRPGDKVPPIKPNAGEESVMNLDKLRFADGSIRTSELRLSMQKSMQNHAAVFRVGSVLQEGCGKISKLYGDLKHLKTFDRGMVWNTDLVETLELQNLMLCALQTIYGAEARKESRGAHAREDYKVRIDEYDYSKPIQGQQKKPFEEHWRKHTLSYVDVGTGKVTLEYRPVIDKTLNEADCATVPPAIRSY
holo-SDHA-SDHAF2 complex (preformed from purified proteins) (human), sequence (Q9NX18 37-166, chain 2 of 2, further chain): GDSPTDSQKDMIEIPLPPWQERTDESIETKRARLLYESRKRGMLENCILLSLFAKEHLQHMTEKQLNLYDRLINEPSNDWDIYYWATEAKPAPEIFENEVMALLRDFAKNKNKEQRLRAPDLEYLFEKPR

percent of SDHAF2 displaced from the SDHA-AF2 complex: 40 to 50%
Substance: SDHAF4^E92N (from UniProt Q5VUM1 21-108) (natural protein)
